In IntAct's records for PubMed 25042851:

molecular target: mlp3a_human MAP1LC3A (UniProt Q9H492)

Row | effect of a mutation on the interaction | Substance
1 | decreasing interaction strength | Toll-interacting protein (Homo sapiens) (from UniProt Q9H0E2) W133A;T134A;H135A;I136A
2 | disrupting interaction strength | Toll-interacting protein (Homo sapiens) (from UniProt Q9H0E2) W133A;T134A;H135A;I136A;W151A;Y152A;S153A;L154A
3 | decreasing interaction strength | Toll-interacting protein (Homo sapiens) (from UniProt Q9H0E2) W151A;Y152A;S153A;L154A
